# Assay results taken from US20230110128A1, “USE OF ANTIBODY DRUG CONJUGATES COMPRISING TUBULIN DISRUPTING AGENTS TO TREAT SOLID TUMOR” (Seagen Inc., priority 2018, published 2023).
# Assays:
# MCF7 cells [1] = test: ATP secretion from MCF7 cells; format: cell-based
# [2] = test system: MCF7 cells subcutaneously engrafted; test: Immune cell composition of MCF7 tumors by flow cytometry; format: in vivo; details: SOD mice with MCF7 tumors, single intraperitoneal dose, 8 days post-ADC treatment
# Description: […] were subcutaneously engrafted with MCF7 cells. Upon reaching 200 cubic millimeters, mice received a single intraperitoneal dose of an MMAE-containing ADC (SGN-LIV1A or anti-CD71-MMAE). 8 days post-ADC treatment, tumors were excised and assessed for immune cell composition by flow cytometry.
# [3] = test system: PC-3 cells subcutaneously engrafted; test: Cytokine/chemokine production in PC-3 tumor-bearing mice by ELISA; format: in vivo, athymic nude mice; details: PC-3 tumors, single intraperitoneal dose, 8 days post-ADC treatment
# Experimental: In another study, athymic nude mice were subcutaneously engrafted with PC-3 cells. Upon reaching 200 cubic millimeters, mice received a single intraperitoneal dose of an MMAE-containing ADC (SGN-LIV1A or anti-CD71-MMAE). 8 days post-ADC treatment, tumors were excised and homogenized in RIPA buffer and cytokine/chemokine production was measured by ELISA. Peripheral cytokine levels were also measured in the serum by ELISA.
# [4] = test system: PC-3 cells subcutaneously engrafted; test: Immune cell infiltration of PC-3 tumors by flow cytometry; format: in vivo, athymic nude mice; details: single intraperitoneal dose, 8 days post-ADC treatment
# Description: Athymic nude mice were subcutaneously engrafted with PC-3 cells. Upon reaching 200 cubic millimeters, mice received a single intraperitoneal dose of an MMAE-containing ADC (SGN-LIV1A or anti-CD71-MMAE). 8 days post-ADC treatment, tumors were excised and assessed for immune cell infiltration and composition by flow cytometry.
# MCF7 cells [5] = test: HMGB1 release from MCF7 cells; format: cell-based
# Experimental: (§1) Induction of ICD is also characterized by the secretion of ATP and HMGB1. Extracellular ATP serves as a strong chemotactic signal, promoting immune cell migration to the tumor site. Upon arrival, extracellular HMGB1 signals through various pro-inflammatory receptors (TLR2, TLR4, RAGE) to activate antigen-presenting cells, thereby promoting immune activity within the tumor.
# as §1, with “MCF7 cells were treated with MMAE or an MMAE-containing ADC (SGN-LIV1A) for 16 hours and harvested in […] for western bot analysis. […] Induction” for “Induction”
# MCF7 breast cancer cells = test: Western blot analysis of ER stress response in MCF7 cells; format: cell-based; details: FIG. 16A
# Experimental: MCF7 breast cancer cells were treated with 100 nM MMAE for 16 hours and harvested RIPA buffer for western blot analysis.
# as §1, with “MCF7 cells were treated with MMAE or an MMAE-containing ADC (SGN-LIV1A) for 16 hours and harvested in […] for western bot analysis. […] Induction” for “Induction”
molecule,measurement,setting,value
"SGN-LIV1A (conjugate, chains of the INN, looked up, vedotin (MMAE) payload) VH: QVQLVQSGAEVKKPGASVKVSCKASGLTIEDYYMHWVRQAPGQGLEWMGWIDPENGDTEYGPKFQGRVTMTRDTSINTAYMELSRLRSDDTAVYYCAVHNAHYGTWFAYWGQGTLVTVSS VL: DVVMTQSPLSLPVTLGQPASISCRSSQSLLHSSGNTYLEWYQQRPGQSPRPLIYKISTRFSGVPDRFSGSGSGTDFTLKISRVEAEDVGVYYCFQGSHVPYTFGGGTKVEIK",Secretion of ATP,MCF7 cells [1],increased secretion
same,ATP secretion,MCF7 cells [1]; after 48 hours of treatment,Increased AIR secretion
same,Immune activation by tumor-infiltrating immune cells,[2],increased level of immune activation by tumor-infiltrating immune cells
same,Cytokine and chemokine production (intratumoral and serum),[3],elevated cytokine and chemokine production
same,Activation of tumor-infiltrating immune cells,[4],enhanced activation
same,Infiltration of immune cells into tumors,[4],increased infiltration of immune cells
same,Secretion of HMGB1,MCF7 cells [5],increased secretion
same,Severe ER stress (phosphorylation of IRE1 and JNK),MCF7 breast cancer cells,elicits severe ER stress (phosphorylation of IRE1 and JNK)
